Measurements reported in paper PMC6546432.

Key:
[1] = target: dog K12del retinol-binding protein (RBP) in serum (dog (endogenous in serum)); assay: non-reducing SDS-PAGE and western blot; dog serum; non-reducing conditions; gels treated with beta-mercaptoethanol before transfer
[2] = target: dog K12del HA-tagged retinol-binding protein (^HARBP) (dog); assay: non-reducing SDS-PAGE and western blot; conditioned media of transfected HeLa cells; no beta-mercaptoethanol; anti-HA, LI-COR

stoichiometry N [1] | dimer fraction [2] | Substance
2 |  | dog K12del retinol-binding protein (RBP) in serum (natural protein)
 | 0.89 | dog K12del HA-tagged retinol-binding protein (^HARBP) (natural protein)
